Test results as given in PMC9981704, “PARP1 allows proper telomere replication through TRF1 poly (ADP-ribosyl)ation and helicase recruitment”.

Tests used:
[1] = molecular target: TRF1 (unmodified, His-tagged full length) (human, UniProt P54274 1-439); test: EMSA; unmodified TRF1, 1 ug protein, 0.5 ng DNA; 20 mM Hepes pH 7.9, 100 mM NaCl, 50 mM KCl, 1 mM MgCl2, 0.1 mM EDTA, 1 mM DTT, 5% glycerol, 0.5 mg/ml BSA, 0.1% NP-40; 4 °C, 90 min; native 4.5% PAGE; settings: protein: recombinant; tags: His (pTrc-HisB); chain copies: 2; label: 32P 5' end label (T4 PNK); blunt
[2] = molecular target: PARP1 (high specific activity) (human, UniProt P09874 1-1014); test: EMSA; PARP1 alone, control from PARylation reaction; did not affect DNA migration; 20 mM Hepes pH 7.9, 100 mM NaCl, 50 mM KCl, 1 mM MgCl2, 0.1 mM EDTA, 1 mM DTT, 5% glycerol, 0.5 mg/ml BSA, 0.1% NP-40; 4 °C, 90 min; native 4.5% PAGE; settings: protein: commercial; label: 32P 5' end label (T4 PNK); blunt
Chain of PARP1 (high specific activity) (P09874 whole entry): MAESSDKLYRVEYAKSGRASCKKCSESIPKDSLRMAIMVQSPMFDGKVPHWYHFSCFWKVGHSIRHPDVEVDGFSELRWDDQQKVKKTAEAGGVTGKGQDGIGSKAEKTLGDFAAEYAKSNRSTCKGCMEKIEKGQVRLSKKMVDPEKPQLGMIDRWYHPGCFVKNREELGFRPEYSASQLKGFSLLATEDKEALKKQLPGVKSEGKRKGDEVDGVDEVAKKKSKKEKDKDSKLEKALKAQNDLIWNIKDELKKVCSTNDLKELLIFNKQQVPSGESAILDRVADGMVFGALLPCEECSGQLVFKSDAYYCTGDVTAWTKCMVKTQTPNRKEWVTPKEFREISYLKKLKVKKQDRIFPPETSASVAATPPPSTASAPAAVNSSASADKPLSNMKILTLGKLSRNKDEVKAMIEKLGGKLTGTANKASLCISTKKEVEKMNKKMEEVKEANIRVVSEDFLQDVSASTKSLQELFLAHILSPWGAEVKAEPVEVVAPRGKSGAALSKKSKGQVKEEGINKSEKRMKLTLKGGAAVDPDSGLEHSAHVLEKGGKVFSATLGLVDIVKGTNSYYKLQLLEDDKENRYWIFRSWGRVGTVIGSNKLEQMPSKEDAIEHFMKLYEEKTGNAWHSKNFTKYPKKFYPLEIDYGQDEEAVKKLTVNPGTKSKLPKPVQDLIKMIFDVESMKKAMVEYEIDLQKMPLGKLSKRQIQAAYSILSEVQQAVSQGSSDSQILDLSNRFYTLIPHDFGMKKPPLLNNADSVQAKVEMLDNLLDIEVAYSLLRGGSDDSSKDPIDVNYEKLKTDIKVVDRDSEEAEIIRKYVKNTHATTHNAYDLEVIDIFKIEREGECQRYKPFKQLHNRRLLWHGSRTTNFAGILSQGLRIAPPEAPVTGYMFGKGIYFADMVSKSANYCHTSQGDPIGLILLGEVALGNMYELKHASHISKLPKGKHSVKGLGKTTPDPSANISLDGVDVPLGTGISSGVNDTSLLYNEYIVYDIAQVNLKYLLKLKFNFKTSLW

Chain of TRF1 (unmodified, His-tagged full length) (P54274 whole entry): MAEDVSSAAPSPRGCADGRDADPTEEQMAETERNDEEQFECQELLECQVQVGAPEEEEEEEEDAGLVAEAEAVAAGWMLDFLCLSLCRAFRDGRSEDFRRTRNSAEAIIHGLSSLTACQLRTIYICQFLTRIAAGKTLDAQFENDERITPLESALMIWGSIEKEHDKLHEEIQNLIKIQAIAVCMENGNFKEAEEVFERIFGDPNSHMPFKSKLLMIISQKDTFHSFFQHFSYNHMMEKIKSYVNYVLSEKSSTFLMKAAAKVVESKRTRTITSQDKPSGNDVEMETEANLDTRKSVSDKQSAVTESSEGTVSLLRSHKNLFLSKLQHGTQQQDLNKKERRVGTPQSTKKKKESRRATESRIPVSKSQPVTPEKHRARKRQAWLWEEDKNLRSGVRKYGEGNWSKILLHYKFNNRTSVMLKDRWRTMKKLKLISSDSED

B1: telomeric duplex DNA (dsDNA)
DNA 1: GGGTTAGGGTTAGGGTTAGGGTTAGGGTTAGGGTTAGGGTTAGGGCCCCTC
DNA 2: GAGGGGCCCTAACCCTAACCCTAACCCTAACCCTAACCCTAACCCTAACCC
binding result [1]: binds | binding result [2]: no binding
